Measurements: the supplement of paper PMC9112550, “Optimization of the antimicrobial peptide Bac7 by deep mutational scanning” (BMC Biology, 2022)

system: Escherichia coli TOP10; test: shrunken log2 fold change of peptide-encoding DNA abundance (4.5 h post-induction vs induction); higher = less antimicrobial activity (less host growth inhibition); conditions: time post-induction: 4.5 h; library: site-saturation at positions 5, 18, 19, 20
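Note: peptides expressed intracellularly from a pBAD plasmid library in pooled LB shake-flask culture, induced with 0.3% L-arabinose, DNA abundance read by NGS, three biological replicates, DESeq2 with apeglm shrinkage.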

| Sequence | shrunken log2 fold change |
| --- | --- |
| RRIRTRPPRLPRPRPRPLLKPRP | -0.336 |
| RRIRIRPPRLPRPRPRPMKDPRP | -0.135 |
| RRIRGRPPRLPRPRPRPRPNPRP | 0.64 |
| RRIRMRPPRLPRPRPRPHIIPRP | -0.991 |
| RRIRQRPPRLPRPRPRPFWMPRP | 0.00494 |
| RRIRARPPRLPRPRPRPIATPRP | 1.21 |
| RRIRSRPPRLPRPRPRPHFEPRP | -0.325 |
| RRIRQRPPRLPRPRPRPVTCPRP | 0.0138 |
| RRIRVRPPRLPRPRPRPLEVPRP | 0.0693 |
| RRIRHRPPRLPRPRPRPVDYPRP | -0.253 |
| RRIRQRPPRLPRPRPRPKSWPRP | 0.19 |
| RRIRPRPPRLPRPRPRPRHSPRP | -0.0642 |
| RRIRFRPPRLPRPRPRPPASPRP | 0.574 |
| RRIRNRPPRLPRPRPRPKISPRP | -0.484 |
| RRIRCRPPRLPRPRPRPARAPRP | 0.471 |
| RRIRWRPPRLPRPRPRPAWWPRP | 0.691 |
| RRIRYRPPRLPRPRPRPRTPPRP | -0.149 |
| RRIRDRPPRLPRPRPRPLANPRP | 0.861 |
| RRIRERPPRLPRPRPRPWLHPRP | -0.262 |
| RRIRGRPPRLPRPRPRPAPRPRP | 1.85 |
| RRIRDRPPRLPRPRPRPVMNPRP | -0.343 |
| RRIRIRPPRLPRPRPRPSTHPRP | -1.02 |
| RRIRKRPPRLPRPRPRPCICPRP | -0.14 |
| RRIRDRPPRLPRPRPRPGALPRP | 0.191 |
| RRIRIRPPRLPRPRPRPEAFPRP | 0.0813 |

| Sequence | shrunken log2 fold change |
| --- | --- |
| RRIRLRPPRLPRPRPRPKYGPRP | -0.364 |
| RRIRLRPPRLPRPRPRPPMIPRP | -0.0218 |
| RRIRDRPPRLPRPRPRPCIMPRP | 0.0282 |
| RRIRMRPPRLPRPRPRPFKMPRP | 0.0516 |
| RRIRCRPPRLPRPRPRPMPHPRP | -0.0714 |
| RRIRWRPPRLPRPRPRPEFNPRP | 0.609 |
| RRIRWRPPRLPRPRPRPWIFPRP | -0.679 |
| RRIRQRPPRLPRPRPRPYKLPRP | -0.603 |
| RRIRFRPPRLPRPRPRPDDLPRP | 0.00489 |
| RRIRDRPPRLPRPRPRPPYLPRP | -0.0541 |
| RRIRTRPPRLPRPRPRPWSWPRP | -0.0374 |
| RRIRPRPPRLPRPRPRPGPSPRP | 0.0312 |
| RRIRRRPPRLPRPRPRPWGFPRP | 0.315 |
| RRIRRRPPRLPRPRPRPHMRPRP | 0.29 |
| RRIRPRPPRLPRPRPRPSNTPRP | -0.316 |
| RRIRFRPPRLPRPRPRPASHPRP | 0.0492 |
| RRIRHRPPRLPRPRPRPVCRPRP | -0.3 |
| RRIRVRPPRLPRPRPRPRREPRP | 0.495 |
| RRIRLRPPRLPRPRPRPMLPPRP | -0.164 |
| RRIRNRPPRLPRPRPRPKCCPRP | -0.0855 |
| RRIRWRPPRLPRPRPRPVDHPRP | 0.0245 |
| RRIRNRPPRLPRPRPRPEIIPRP | -0.00607 |
| RRIRPRPPRLPRPRPRPYHQPRP | 0.0122 |
| RRIRARPPRLPRPRPRPDHNPRP | -0.154 |
| RRIRQRPPRLPRPRPRPNCIPRP | 0.133 |

| Sequence | shrunken log2 fold change |
| --- | --- |
| RRIRERPPRLPRPRPRPNMCPRP | -0.369 |
| RRIRHRPPRLPRPRPRPIPKPRP | -0.0389 |
| RRIRRRPPRLPRPRPRPVMWPRP | 0.0562 |
| RRIRQRPPRLPRPRPRPMVGPRP | -0.00963 |
| RRIRKRPPRLPRPRPRPWSTPRP | 0.0277 |
| RRIRKRPPRLPRPRPRPQGQPRP | -0.00726 |
| RRIRNRPPRLPRPRPRPQWQPRP | -0.0605 |
| RRIRPRPPRLPRPRPRPCVKPRP | -0.139 |
| RRIRCRPPRLPRPRPRPMSHPRP | -0.207 |
| RRIRMRPPRLPRPRPRPVWFPRP | 0.46 |
| RRIRKRPPRLPRPRPRPPRYPRP | 0.525 |
| RRIRARPPRLPRPRPRPCKHPRP | -0.116 |
| RRIRWRPPRLPRPRPRPTYDPRP | 1.48 |
| RRIRRRPPRLPRPRPRPWTWPRP | -0.008 |
| RRIRHRPPRLPRPRPRPDRSPRP | -0.0222 |
| RRIRYRPPRLPRPRPRPHEKPRP | -0.00489 |
| RRIRPRPPRLPRPRPRPWAEPRP | 0.166 |
| RRIRFRPPRLPRPRPRPTEHPRP | -0.316 |
| RRIRARPPRLPRPRPRPDGVPRP | 0.971 |
| RRIRNRPPRLPRPRPRPYICPRP | -0.0343 |
| RRIRQRPPRLPRPRPRPKEIPRP | -0.223 |
| RRIRNRPPRLPRPRPRPLKVPRP | 4.47 |
| RRIRSRPPRLPRPRPRPCIDPRP | -0.607 |
| RRIRNRPPRLPRPRPRPSHNPRP | -0.643 |
| RRIRERPPRLPRPRPRPVCMPRP | -0.164 |

| Sequence | shrunken log2 fold change |
| --- | --- |
| RRIRMRPPRLPRPRPRPAYPPRP | 0.0222 |
| RRIRARPPRLPRPRPRPQNTPRP | -0.286 |
| RRIRVRPPRLPRPRPRPDVLPRP | 0.00338 |
| RRIRFRPPRLPRPRPRPRKMPRP | 0.0208 |
| RRIRKRPPRLPRPRPRPHKFPRP | 0.0822 |
| RRIRKRPPRLPRPRPRPEKRPRP | 0.81 |
| RRIRMRPPRLPRPRPRPNICPRP | 0.021 |
| RRIRHRPPRLPRPRPRPAVGPRP | 0.11 |
| RRIRPRPPRLPRPRPRPIFMPRP | -0.0036 |
| RRIRTRPPRLPRPRPRPDMEPRP | -0.132 |
| RRIRSRPPRLPRPRPRPKSKPRP | -0.0869 |
| RRIRIRPPRLPRPRPRPMYDPRP | -0.726 |
| RRIRLRPPRLPRPRPRPDHGPRP | -0.147 |
| RRIRTRPPRLPRPRPRPKSNPRP | -0.448 |
| RRIRDRPPRLPRPRPRPFLLPRP | 0.0901 |
| RRIRVRPPRLPRPRPRPNVIPRP | -0.329 |
| RRIRFRPPRLPRPRPRPWIDPRP | -0.0232 |
| RRIRCRPPRLPRPRPRPYGTPRP | 0.016 |
| RRIRHRPPRLPRPRPRPKRRPRP | 0.116 |
| RRIRVRPPRLPRPRPRPIRPPRP | -0.0154 |
| RRIRKRPPRLPRPRPRPHTIPRP | 0.00577 |
| RRIRPRPPRLPRPRPRPHVWPRP | 0.51 |
| RRIRDRPPRLPRPRPRPQQFPRP | 0.251 |
| RRIRPRPPRLPRPRPRPATPPRP | 0.216 |
| RRIRSRPPRLPRPRPRPKRIPRP | -0.275 |

| Sequence | shrunken log2 fold change |
| --- | --- |
| RRIRLRPPRLPRPRPRPKFQPRP | -0.113 |
| RRIRKRPPRLPRPRPRPCMSPRP | -0.0865 |
| RRIRSRPPRLPRPRPRPQWDPRP | -0.235 |
| RRIRKRPPRLPRPRPRPHFRPRP | -0.138 |
| RRIRNRPPRLPRPRPRPADCPRP | 0.131 |
| RRIRMRPPRLPRPRPRPDGWPRP | 1.48 |
| RRIRIRPPRLPRPRPRPNTTPRP | -0.357 |
| RRIRERPPRLPRPRPRPVQLPRP | -0.329 |
| RRIRGRPPRLPRPRPRPKNTPRP | 0.232 |
| RRIRNRPPRLPRPRPRPANQPRP | 0.271 |
| RRIRKRPPRLPRPRPRPTSWPRP | 0.6 |
| RRIRYRPPRLPRPRPRPCPEPRP | -0.421 |
| RRIRFRPPRLPRPRPRPPQAPRP | 0.558 |
| RRIRCRPPRLPRPRPRPGVRPRP | 0.32 |
| RRIRWRPPRLPRPRPRPSASPRP | 0.363 |
| RRIRRRPPRLPRPRPRPKILPRP | -0.199 |
| RRIRDRPPRLPRPRPRPYVTPRP | -0.131 |
| RRIRGRPPRLPRPRPRPKNWPRP | 0.466 |
| RRIRSRPPRLPRPRPRPKDSPRP | 0.1 |
| RRIRYRPPRLPRPRPRPTQMPRP | -0.213 |
| RRIRNRPPRLPRPRPRPFMWPRP | -0.134 |
| RRIRQRPPRLPRPRPRPYNHPRP | -0.047 |
| RRIRGRPPRLPRPRPRPSSLPRP | -0.252 |
| RRIRARPPRLPRPRPRPIHCPRP | -0.189 |
| RRIRWRPPRLPRPRPRPKCHPRP | 0.206 |

| Sequence | shrunken log2 fold change |
| --- | --- |
| RRIRDRPPRLPRPRPRPYQYPRP | -0.0404 |
| RRIRGRPPRLPRPRPRPKQIPRP | 0.335 |
| RRIRFRPPRLPRPRPRPIWCPRP | -0.0176 |
| RRIRYRPPRLPRPRPRPHRHPRP | -0.615 |
| RRIRGRPPRLPRPRPRPQVFPRP | 0.0336 |
| RRIRFRPPRLPRPRPRPDEEPRP | -0.00623 |
| RRIRWRPPRLPRPRPRPWSQPRP | 0.298 |
| RRIRMRPPRLPRPRPRPAANPRP | -0.00188 |
| RRIRFRPPRLPRPRPRPKFKPRP | -0.238 |
| RRIRQRPPRLPRPRPRPANEPRP | -0.104 |
| RRIRRRPPRLPRPRPRPDNLPRP | 0.000421 |
| RRIRVRPPRLPRPRPRPKDPPRP | -0.106 |
| RRIRCRPPRLPRPRPRPRVFPRP | 0.0449 |
| RRIRARPPRLPRPRPRPENNPRP | 0.263 |
| RRIRIRPPRLPRPRPRPGVCPRP | 0.0702 |
| RRIRRRPPRLPRPRPRPGSFPRP | 0.122 |
| RRIRHRPPRLPRPRPRPSHRPRP | -0.548 |
| RRIRDRPPRLPRPRPRPHLSPRP | 0.0479 |
| RRIRDRPPRLPRPRPRPYELPRP | -0.118 |
| RRIRYRPPRLPRPRPRPTKSPRP | -0.517 |
| RRIRERPPRLPRPRPRPVITPRP | -0.145 |
| RRIRSRPPRLPRPRPRPINTPRP | -0.648 |
| RRIRLRPPRLPRPRPRPVHNPRP | -0.281 |
| RRIRYRPPRLPRPRPRPEHLPRP | -0.357 |
| RRIRIRPPRLPRPRPRPFNWPRP | -0.155 |
